Laboratory results from US11492610B2, “Sample multiplexing for single-cell RNA sequencing” (California Institute of Technology, priority 2018, dated 2022).

Tested on: mouse neural stem cells (NSCs)
Assay: 96-plex scRNA-seq perturbation experiment (96-sample growth factor screen)
Format: cell-based
Procedure: Neural stem cells for 96-sample growth factor screen were cultured according to the following protocol after previously described cell culture plate reached ˜80% confluence: Stock solutions (10×) were prepared in Neural Stem Cell Basal Medium for every factor and at every concentration used: EGF+bFGF at 200 ng/mL, 40 ng/mL, 8 ng/mL, 1.6 ng/mL; BMP4 (Peprotech) at 200 ng/mL, 40 ng/mL, 8 ng/mL, 0 ng/mL; Retinoic Acid (Sigma) at 10 μM, 2 μM, 0 μM; Scriptaid (Selleckchem)/Decitabine (Selleckchem) at 1 μM/5 μM, 0.2 μM/1 μM, 0 μM/0 μM; Heparin at 20 μg/mL+Penicillin-Streptomycin at 10%. 20 μL each of EGF/bFGF, BMP4, Retinoic acid or Scriptaid/Decitabine, and Heparin/Penicillin-Streptomycin were added to each well of a poly-L-ornithine and laminin coated 96-well plate for a total of 80 μL.
NSCs previously plated on 100 mm culture plates until ˜80% confluent were dissociated by incubation in 4 mL of ESGRO Complete Accutase (Millipore) for 2 minutes at 37° C. After incubation, the Accutase and NSCs were transferred to a 15 mL conical tube and centrifuged at room temperature for 2.5 minutes at 200×g. Supernatant was removed and the cell pellet was resuspended in 2 mL Neural Stem Cell Basal Medium. Centrifugation and medium replacement were repeated one more time and cell concentration was counted on the Countess II Automated Cell Counter. The cell suspension was then diluted with additional Neural Stem Cell Basal Medium to a concentration of 18.3 cells/μL. From this stock 120 μL was added to each well of the 96-well plate for a total of ˜2,200 cells/well. Supplemented media for every well in the 96-well plate was replaced every other day during the 5-day incubation.
Before NSC dissociation and fixation, 80 μL of ice-cold methanol was added to each well of twelve 8-well PCR strips on an ice block. After 5 days in culture, all media in the 96-well plate were removed and the cells washed three times with 150 μL of Neural Stem Cell Basal Medium. Any remaining media were removed and replaced with 20 μL of Accutase and incubated at 37° C. for 2 minutes with gentle pipetting to help break cell clumps. […]
Cells for the 96-sample perturbation experiment were prepared as described above. […] Sequencing libraries were prepared as described, with sample tag libraries sequenced on two lanes of Illumina MiSeq using MiSeq v3 150 cycle kits (26×98 bp reads), and cDNA libraries pooled and sequenced on Illumina HiSeq 4000 using two HiSeq 3000/4000 SBS 300 cycle kits (2×150 bp reads).
For the 96-sample perturbation experiment, the ScanPy Python package (version 1.0.4) was used to process the filtered genes×cells matrix produced by cellranger. […] The per-cell read counts were regressed out and the data scaled to unit variance. […]

B1: BMP4: bone morphogenic protein 4 (BMP4), Peprotech (protein, UniProt P12644 293-408, looked up)
Bone morphogenetic protein 4: SPKHHSQRARKKNKNCRRHSLYVDFSDVGWNDWIVAPPGYQAFYCHGDCPFPLADHLNSTNHAIVQTLVNSVNSSIPKACCVPTELSAISMLYLDEYDKVVLKNYQEMVVEGCGCR
- cell proliferation / phenotype across the perturbation array (Example 2 analysis, FIG. 3E, 5A): high proliferation under low BMP4 conditions
- effect on cell populations, PCA of relative cluster abundance × sample matrix (Example 2 analysis, FIG. 5B): graded effect
- cell proliferation / phenotype across the perturbation array (Example 5 re-analysis (UMAP), FIG. 24, 27): high proliferation under low BMP4 conditions
- effect on cell populations, PCA of relative cluster abundance × sample matrix (Example 5 re-analysis (UMAP), FIG. 24B): graded effect
